Data taken from the domain aggregation screens of Martell et al. (2025).

Experiment: soluble fraction after stress (log2 fold change); higher = more stays soluble; pooled small domains, quantitative proteomics
Details: stress: 75 degC
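Further: 20 min heating vs room temperature control held 20 min.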

Sequence | soluble fraction (log2)
HMELEIPGELIEAVRRLRDERQRMRLAGELAARQIQMHPERYTEASIDPVQTWDELRARILALA | -0.485
HMELLSGTVEKVLTSGVLVKLPGGAIGFIPNSEMGTPRGTNHGKMFPAGTPLQVMVVEVNQDRGRITLSR | -1.69
HMELLTNPLTGREVEVLTLMALGQTNHEIARQLYLATGTVKAHTSSIYRKLDVANRTEAVARARQLGIL | -2.32
HMELLTYREMDVLNLLDQRLTNKEIAHALGISTETVRQHTVNLFRKLNVDNRRQAIVVARSLGYIGTPT | -2.97
HMELNESVLKALYEKFREMSGSKGFITEDEVIIQLEKENPDITPDQQAEIFKYLYDTPLQIY | -0.268
HMELNFEGFYRFVRDELNVDLNAYKEKQLKRRIATVMKSSGALTLEDYSRLIANDEVIRNKFLDYITI | -3.37
HMELPMGTQLPPERELAQQMQVSRAVVNGGLAELAQQGFLEVRPRQGTFVADYRRKGNLSTLIAIMEY | 0.257
HMELPPLQPGQPIDGRVEQQIRAGYYVVSVRGRGYEFQLPESARPGDLLRMVYLNDHPRLTFALLRIDNAN | -1.5
HMELPVAVPHTELSPEALRGVVESFVLREGTDYGERDVPFEAKVAQVIRQLERGEARIMFDPVTQSVQIVT | 0.162
HMELRSPMPGLIIEIPVSKGDIIKKDQSLIILEAMKMENVLTSPINGKIADIKVNVQDTVEKNNLLITFEN | -0.0769
HMELSESLENYLVVIYEAHLRNEIARIKDMTASLSVKHTSAIDAIKKLEDLGIVNYEKRGFVKLTQSGIEK | 0.00204
HMELSPAELGERLKVARETANVTQDAGAKAAGIARTTLVAIEKGQRSARIDELQTLSRRYGVSVNSLLRR | -0.154
HMELSSRQAMIVDIVRKYEPITSEQIADKLNLTRSALRPDLAVLTMIGILEARPRVGYFFTGK | -1.91
HMELSTQERIQILLEILNQREIISFSQTLRKKEGKKGVVVTFLASLELAKDGYVTLVQNKSDQIYLRSN | -0.803
HMELTDSLTENAKKLYSVLTTEPRHIDDLSEEAKLSSADTLAALTELELYSLVALSEGKHYYK | -0.349
HMELTKAELEVMQILWKLKKAFVGDILDRMVEPKPAYNTVSTVVRLLEKKGVVGHESFGKSHRYYPL | -3.66
HMELTVPDFTNMSLEDAINLAEKRDVRLEVTDSVFVKRLGRGFIYSQNPVAGSKVKKGRRILITINAIN | -3.63
HMEMDPKELGRQVLAKRKEKGWSQEQLGKMAEISRNYVSQIERGEADSISIKIINRLAIALGVSPSDLGE | -0.292
HMEMKHKNSQIFQAIKLKHMGFTPTQISEELRVSRTTINHWLTKAQLKDVKWEDIRENSADELVKLLFG | -1.33
HMEMNPLDIQNKAAELAQQWLQLPVGERQKQMAAVRTSNPNLHAMAKQKMEEMRSQAESQGRQSLSQP | 0.324
HMEMTDKEEELMRIFWNHGPMFVREIVELYPEPRPHFNTLSTFVRNLEQKGFVSHEAVGGSFRYYAV | -1.45
HMEMTEDEITKQFDAMEREAKKEIDTGADKRAFMYGVSRTAAGMAGKNPKYARFITDKAKEVIENIAKYK | 0.298
HMENAEALLKKLSGVLSDYEYKMLMLYADGKTPRRIAQETGQSAKSVSNALFRARTKLKELYEDQ | -0.66

Sequence | soluble fraction (log2)
HMENEIVMPVQINGKKRGDLTIARDADQASIQKAVLELDFVKAALNGGSPKKVIVVPQRIVNVV | 0.338
HMENFKVFMKAVQEVSPVPVRFDEISSGAKGYYSNTEKEIVIQNGMSESQTMKTGIHEVTHAMLHDRDF | 0.234
HMENFYGYEIINPEAKKFFITMGVNRYALEQWIKNKSEYGLIIVKSLYPFDPRLKLFLEKNRERIQNLIF | -0.526
HMENKLIELTLSLDKSERLDKILTQELSHTRSVIQQWLKSGFVSVNGEIVKANYKAKDGDHVTIQIE | -0.594
HMENKTGEVTVREDSALTLRQGPGTNYEKVGQAYRGDRVDVLEEQNGWYKVKTYDGKEAWASSSYISIV | 0.861
HMENMETSDIVARYSNMPGGIIEAFHEIVDRHGFLSQEAIIEAARGFGISVAEAYGVATFYSMFS | -0.342
HMENMRLILASNLRRIREERRLSLNKVSELTGVSKSMLGQIERGESNPTLQTVWKIANGLRVSLTDLTEVP | -2.66
HMENRILLSEDSLKHLAQDIPIDIIEKLSVLKDQIYHRYDDFNSIVQGLLGGENYLKYKDNILSFVEQ | 0.424
HMENSMDTDWDVSGVDPSQYRLLFSTLGAIAGVKDVGLNPDGLKIIHTPEALPAIKQAFDANNLKLKMRTN | -0.0945
HMENSPLTHREAEVMRLMSEGKSNRAISEHLVISEKTVKNHVSSILQKMSVDDRTQAVLQAIKNGWVD | 0.281
HMENTGFKDKKGNYIFDGDIVKDILGNIMKVEFKHFKWQLIPLNKTAFNMPMVDWLDLETETLNAEIIGN | -2.07
HMENTIESLLKAKGFNDIIVTVSDKQVDVVVSDKEIADNKRAQIEDVIKRKTGLEASAITITPA | 0.127
HMENVLFVNVLSMTVRELAEMMKIPVNKIIQDSFSKGIMMNPNQRLEYDNFAELAKKYGITVKI | -1.24
HMENVMLRNFAIQATEAGVIKLLEDQRTFVWGSNNKKFMTVPFDEHPYSAMAAFFKTDEGLEIYKSIEKKF | -1.97
HMENYQIETFVKFIEESTGEDGVAFEDLFQNFTSRPAVITMFLALLEALRRNSIRIFQKEEFSQILIYPK | -0.0302
HMENYTYKYATSANVNIREEPNTDSTILGKTLLNTEFQVVEDVDGWSKITTEAGYAYIKSEYLSDTE | 0.502
HMEPDEQAVKALIAEIDKLSKEKLTLKHEKKLKELREIYDDFTEEEKKLVTNYDILVKMEKRMEVLKKQEG | 0.127
HMEPDEYTVRQAFMKFDVGGEGRVPRDKLKALLETLGLELSAQQVRESEEQLDPEGTGFTSYGDFLMWWN | -0.793
HMEPEVSNTYEKVLGMHHFSSTRSHQLHDLVRQANALELSLGEIESIAQSAKDGAQVISDIKHWMEPNRQ | 0.381
HMEPEWVINTDGSNLNEILAIDEVDSRKTFSNDLQEVYRTFGIEAARQILVQEIDAVIESSGA | 0.082
HMEPFEQLLDRITSQTGKEPEEVVARMNELITERFDGNIRPEAALVIVAKRDNIQFMDLLDQLKQALL | -0.427
HMEPIAFDNMHNRGIKGTNDWTQYEITLPFSAEAKKIFVAGLLVGKGKAWFDKFEVFLDGKNITDVAQI | 0.0509
HMEPPPSYSALLKQISSGKVKELQLVPARREVIVTYPDGRSATVAILANDQQILRTAEAAGTPLLVK | 0.189

Sequence | soluble fraction (log2)
HMEPQLVKSFDVQTELTYDQFLSKYPESHTLGRLLVQPEPIPFEPYKNIPGITPEKLLALHAKHLEAR | 0.107
HMEPQSRTAYRLIEAMIVTHELPPGSRISEASLSAKLGIGRTPIREALQRLSFEGTVKIVPRSGAFVSEI | -2.78
HMEPREALDGLISERGETYASISRLLGRNSAYIQQFIKRGSPARLDQSDIALLALHFDVPVEMLGGKE | -0.588
HMEPTIGTATVTSGSRLNMRSAKSTSASVVTRIPSGATVGVISYASDWSKVTYNGYTGYVSSPYISMNG | -1.19
HMEPVIELGDRTLPIEITRHRRARRLTLRLAADGSAVRITLPHWARSAEATAFAHARRDWLAAQLAK | 0.181
HMEPVTETVYAMDTVNIRAAADQTSEKIGSVTVGTALTRTGTDGDWSIIDYNGTTGYVKSEFLSNTAPEV | 0.253
HMEQLIIQEELSGKRLDQLVSLLFPSLTRAHAQKLIKEGAVLVNEKPRKPAYAVMTGELLTVELPEPE | -0.167
HMEQNHYEVLGVSRDAIPEEIRKAYFEYARKLHPDANPDPGAAEQFMRIQTAYDVLSNPDRRHEYDGLLPP | 0.00418
HMEQRREEFILLAKELLEKELRKQNLEVHENLKPDVLNDVAKRLGMVSMDDLLAAVGDGKITPGTVVSKIV | -0.0625
HMEQVLNVAVRRGELIMSSAAEQTVRIYSSAGSMVWQGKVSASDVTVELPSGVYVVNGKKVV | -1.25
HMEQYFEDEELNDKFLEFLAMRKRVRKPVQTDRGMKMLLTSLHKLSGGDVGLMKQIIDQSLDNEWKKFVA | -1.14
HMERDIATKHEVNRTVEAYSDIVKTLNLPSHKINLVEISFFNILKRSKPSPRENSILLGLAQKIKLHLEKK | -0.737
HMERLKYSQVVDLFKGEQVKSFVLDESNQLKMELQDGSTVSYKLRSFEQFYLDLSDTVKEQKESGIITDYD | -0.685
HMERPPHELLSDREYQTMVMIASGRTLTQIAEEMSLSPKTVSVYRARLLEKMKLKNNAELTHYALKHKLV | -1.89
HMERPSLDQVLAHAKALGIAPARFVAYADGRWGTGWRLSPHGRARAWEELDRHRNDPLGYRDKLDVALQSG | -0.179
HMESAQLIINVAGKVSNPGVYQLPQGSRVVDAIEAAGKQLKGVDISDINLARVLVDGEQILVGGV | 0.363
HMESAVDVFRSILKEKGVTEEEVRQVVAARGKYTLETPIDDYPNEFLYGYVIRYWDQIFDIIQQSREAK | -1.06
HMESEAKLGVAFNGKTRFDMTFPADADNKTIEEAVLADERAQKYLEGFQVAKVIIVPKRMVNIVLK | -0.189
HMESEIYKKIEKSRLLELAFTKSQKGDLTGAYDLYYQAFTKYDVIADNQNRYFEDFISLIRRKQQQD | -2.54
HMESGLPLPRFVSLGADEVNLRTGPGLRYPVAWVFVRKALPVEIVAEFEQWRRVRDFEGAEGWVHKAML | -0.163
HMESGSSKINQDILETFTRGKKSLSISDISRLSGHHRHTVARYLDNLVSSGKLEMRQHGQKKKYYLSDIQP | -0.314
HMESILDDFPGLGAVRRAALLEHFGDIDRLRAASAVEITEVDGFGDVLARELHDFLHRPKPDA | -0.515
HMESKKKTYTVKSGDTLVSILKREGVPQELIFKDYLGLFLELNPQISDINKLRVGQEIVLPVPG | 0.05
